Experimental data as given in patent US20210221867A1, “Compounds Capable of Binding to Melanocortin 4 Receptor” (Novo Nordisk A/S, priority 2018, published 2021).
Positions of bridges follow the written chain, without caps; N, C: chain ends. Non-standard residues stand in square brackets, D forms with d. Nle = CCCC[C@H](N)C(=O)O

B1: Ac-D-Arg-c[Cys-Pro-His-D-Phe-His-Trp-Cys]-Pro-Pro-D-Arg-Glu-Nle-D-Arg-D-Arg-NH2 (peptide)
peptide: Ac-[dR]CPH[dF]HWCPP[dR]E[Nle][dR][dR]-NH2
modifications: disulfide 2-8
SMILES: CCCC[C@H](NC(=O)[C@H](CCC(=O)O)NC(=O)[C@@H](CCCNC(=N)N)NC(=O)[C@@H]1CCCN1C(=O)[C@@H]1CCCN1C(=O)[C@@H]1CSSC[C@H](NC(=O)[C@@H](CCCNC(=N)N)NC(C)=O)C(=O)N2CCC[C@H]2C(=O)N[C@@H](Cc2c[nH]cn2)C(=O)N[C@H](Cc2ccccc2)C(=O)N[C@@H](Cc2c[nH]cn2)C(=O)N[C@@H](Cc2c[nH]c3ccccc23)C(=O)N1)C(=O)N[C@H](CCCNC(=N)N)C(=O)N[C@H](CCCNC(=N)N)C(N)=O
B2: Ac-c[Cys-Pro-His-D-Phe-His-Trp-Cys]-Pro-Pro-D-Arg-Glu-Nle-D-Arg-D-Arg-D-Arg-NH2 (peptide)
peptide: Ac-CPH[dF]HWCPP[dR]E[Nle][dR][dR][dR]-NH2
modifications: disulfide 1-7
SMILES: CCCC[C@H](NC(=O)[C@H](CCC(=O)O)NC(=O)[C@@H](CCCNC(=N)N)NC(=O)[C@@H]1CCCN1C(=O)[C@@H]1CCCN1C(=O)[C@@H]1CSSC[C@H](NC(C)=O)C(=O)N2CCC[C@H]2C(=O)N[C@@H](Cc2c[nH]cn2)C(=O)N[C@H](Cc2ccccc2)C(=O)N[C@@H](Cc2c[nH]cn2)C(=O)N[C@@H](Cc2c[nH]c3ccccc23)C(=O)N1)C(=O)N[C@H](CCCNC(=N)N)C(=O)N[C@H](CCCNC(=N)N)C(=O)N[C@H](CCCNC(=N)N)C(N)=O
B3: Ac-D-Arg-c[Cys-Pro-His-D-Phe-His-Trp-Cys]-Pro-Pro-D-Arg-D-Arg-NH2 (peptide)
peptide: Ac-[dR]CPH[dF]HWCPP[dR][dR]-NH2
modifications: disulfide 2-8
SMILES: CC(=O)N[C@H](CCCNC(=N)N)C(=O)N[C@H]1CSSC[C@@H](C(=O)N2CCC[C@H]2C(=O)N2CCC[C@H]2C(=O)N[C@H](CCCNC(=N)N)C(=O)N[C@H](CCCNC(=N)N)C(N)=O)NC(=O)[C@H](Cc2c[nH]c3ccccc23)NC(=O)[C@H](Cc2c[nH]cn2)NC(=O)[C@@H](Cc2ccccc2)NC(=O)[C@H](Cc2c[nH]cn2)NC(=O)[C@@H]2CCCN2C1=O

Experiments:
[1] = target: human MC1 receptor (human) (UniProt Q01726); assay: cell-based or functional assay
[2] = target: human MC4 receptor (human) (UniProt P32245); assay: cell-based or functional assay
[3] = target: human MC1 receptor (human) (UniProt Q01726); assay: SPA competition binding, displacement of 125I-NDP-α-MSH, BHK membranes with human MC1R
[4] = target: human MC4 receptor (human) (UniProt P32245); assay: SPA competition binding, displacement of 125I-NDP-α-MSH, BHK membranes with human MC4R

human MC1 receptor (human), sequence (Q01726 whole entry): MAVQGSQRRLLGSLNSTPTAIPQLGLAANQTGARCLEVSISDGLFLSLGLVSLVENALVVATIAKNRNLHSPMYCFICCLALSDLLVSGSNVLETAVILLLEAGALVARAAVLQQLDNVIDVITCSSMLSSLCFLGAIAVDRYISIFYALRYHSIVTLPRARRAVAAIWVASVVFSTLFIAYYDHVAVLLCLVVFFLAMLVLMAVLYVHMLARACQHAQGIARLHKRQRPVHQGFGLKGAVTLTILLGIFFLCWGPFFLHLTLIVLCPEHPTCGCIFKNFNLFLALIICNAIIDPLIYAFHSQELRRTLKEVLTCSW
human MC4 receptor (human), sequence (P32245 whole entry): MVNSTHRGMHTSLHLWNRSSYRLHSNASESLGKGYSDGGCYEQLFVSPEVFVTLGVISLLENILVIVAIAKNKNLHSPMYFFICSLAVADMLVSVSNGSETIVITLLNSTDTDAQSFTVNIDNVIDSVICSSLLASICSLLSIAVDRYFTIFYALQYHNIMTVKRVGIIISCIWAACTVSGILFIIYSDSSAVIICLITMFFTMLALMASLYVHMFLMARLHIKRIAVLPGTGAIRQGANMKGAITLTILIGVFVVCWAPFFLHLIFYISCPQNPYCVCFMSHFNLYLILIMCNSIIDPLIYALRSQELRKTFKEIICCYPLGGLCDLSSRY

Binder	MC1R cAMP EC50 [1] [nM]	MC4R cAMP EC50 [2] [nM]	IC50 [3] [nM]	IC50 [4] [nM]
B1	126	0.32	44.1	0.35
B2	–	0.16	138	0.27
B3	179	0.19	69	0.39
